Changes are numbered by the printed parent chain.
Target: Recombinant human HER2 (Homo sapiens, UniProt P04626)
Assay: SPR

B1: e23sFv, mouse anti-HER2 single-chain variable fragment (scFv, V domains shown)
VH: VQLQESGPEVVKPGGSMKISCKTSGYSFTGHTMNWVKQSHGKNLEWIGLINPYNGDTNYNQKFKGKATFTVDKSSSTAYMELLSLTSEDSAVYYCARRVTDWYFDVWGAGTTVTVS
VL: DLQLTQSPAILSASPGEKVTMTCRATPSVSYMHWYQQKPGSSPKPWIYTTSNLASGVPARFSGGGSGTSYSLTVSRVEAEDAATYYCQQWSRSPPTFGGGSKLEIK
  Kd: 2.5 nM

B2: EMEY, e23sFv derivative with 11 point mutations in the framework regions (scFv, V domains shown)
VH: B1 VH with V10L, M17V, T23A, N43G, F69L, L83S
VL: B1 VL with S41T, P45L, G64S, V74I, S101T
  Kd: ~500 nM
